From the nanobody polyreactivity screen of Harvey et al. (2022)

Test: yeast display, Sf9 membrane polyspecificity reagent, FACS + sequencing; frameworks hold sequencing errors
Summary of the method: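 Galactose induction of a Saccharomyces cerevisiae BJ5465 synthetic nanobody display library ran 36–48 hours. The cells were then stained for 1 hour at 4 °C with 10% biotinylated, detergent-solubilized Sf9 membrane reagent, pulled down on streptavidin microbeads and FACS-sorted into low and high (top ~1%) gates on expression and reagent-binding fluorescence. Labels for polyreactivity follow the gate of origin.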

For “QVQLVESGGGLVQAGGSLRLICAASGLIFPSYAMGWYRQAPGKERELVAGINSGGSTNYADSVKGRFTISRDNAKNTVYLQMNSLKPEDTAVYYCAKDNNYYWYVSPRDYWGQGTQVTVSS”, which “polyreactivity (PSR sort gate)” value is on record?
The value was “low polyreactivity”.

With “QVQLVESGGGLVQAGGSLRLICAASGLTFHPYAMGWYRPAPGKERELVAAISSRGTSTYYADSVKGRFTISRDNAQNTVYLQMNCLKPEDTAVYYFAARHGPRAEAMYYWGQGTQVTVSS” as the sequence, how does the “polyreactivity (PSR sort gate)” value read?
Its value is “high polyreactivity”.

With “QVQLVESGGGLVQAGGSLRLICAASGLTFHRYAMGWYRQAPGKERELVAAINYSGGRTYYADSVKGRFTISRDNAKNTVYLQMNSLKPEDTAVYYCAAPRASGYYWGQGTQVTVSS” as the sequence, how does the “polyreactivity (PSR sort gate)” value read?
The value was “high polyreactivity”.

With “QVQLVESGGGLVQAGGSLRLICAASGLTFKRYAMGWYRQAPGKEREFVAAISAGGASTHYADSVKGRFTISRDNAKNTVYLQMNSLKPEDTAVYYCATDYRSFRPSFGYWGQGTQVTVSS” as the sequence, how does the “polyreactivity (PSR sort gate)” value read?
The value was “low polyreactivity”.

For “QVQLVESGGGLVQAGGSLRLICAASGLTFKSNTMGWYRQAPGKERELVAAISRSGGRTYYADSVKGRFTLSRDNAKNTVYLQMNSLKPEDTAVYYCAALYHTYLTWREDYWGQGTQVTVSS”, which “polyreactivity (PSR sort gate)” value is on record?
Its value is “high polyreactivity”.

For “QVQLVESGGGLVQAGGSLRLICAASGNIFTQYGMGWYRQAPGKERELVAAISRRGGSTYYADSVKGRFTISRDNAKNTVYLQMNSLKPEDTAVYYCARRTNRPPWGFEYWGQGTQVTVSS”, which “polyreactivity (PSR sort gate)” value is on record?
The value was “high polyreactivity”.

Which “polyreactivity (PSR sort gate)” value does the source give for “QVQLVESGGGLVQAGGSLRLICAASGNTFSAYGMGYYRQAAGKERELVAGITNGGSTNYADSVKGRFTISRDNAMNTVYLQMNSLKPEDTAVYYCATVQYVEPPTPVDYWGQGTQVTVSS” here?
The value was “low polyreactivity”.

Which “polyreactivity (PSR sort gate)” value does the source give for “QVQLVESGGGLVQAGGSLRLICAASGNTFYYYAMGWYRQAPGKERELVASITSTARTYYADSVKGRFTISRDNAKNTGYLQMNSLKPEDTAVYYCNAKEHYATRSDSCGQGTQVTVSS” here?
Its value is “high polyreactivity”.

For “QVQLVESGGGLVQAGGSLRLICAASGPTFTKANAMVWYRQAPGKERELVAAITDGGSTYADSVKGRFTNSRDNSKNTVYLQMNCLKPEDTAVYYCAKENEVFYDASYDYWGQGTQVTVSS”, which “polyreactivity (PSR sort gate)” value is on record?
The value was “low polyreactivity”.

Which “polyreactivity (PSR sort gate)” value does the source give for “QVQLVESGGGLVQAGGSLRLICAASGRIFCRNTMGWYRQAPGKERELVAAINYSGGRTYYADSVKGRFTISRDNAKNTVYLLMNSLKPEDTAVYYCAATPPVATNGRYYYWGQGTQVTVSS” here?
The value was “low polyreactivity”.

With “QVQLVESGGGLVQAGGSLRLICAASGRIFGDNAMGWYRQAPGKERELVAGIRWRADRTYYADSVKGRFTISRDNAKNTFYLQMNSLKPEDTAVYYCAARGGGYYDFDYWGQGTQVTVSS” as the sequence, how does the “polyreactivity (PSR sort gate)” value read?
Its value is “low polyreactivity”.

Which “polyreactivity (PSR sort gate)” value does the source give for “QVQLVESGGGLVQAGGSLRLICAASGRIFGVYAKGWYRQAPGKERDFVATNSNRGGGSTYYADSVKGRFTISRDNAMNTVYLQMNSLKPEDTSVYYCNVRARYPFGYDYWGQGTQVTVSS” here?
The value was “high polyreactivity”.

For “QVQLVESGGGLVQAGGSLRLICAASGRIFGYNAMGWSRQAPGKERELVAAIRGSGSTYYADSVKGRFTISRDNAKNTVYLQMNSLKPEDTAVYYCAARTSSTKYYYWGQGTQVTVSS”, which “polyreactivity (PSR sort gate)” value is on record?
The value was “high polyreactivity”.

With “QVQLVESGGGLVQAGGSLRLICAASGRIFHPYAMAWYRQAPGKERELVATISWSGGSTTYEDSVKGRFTISRDNAKNTVYLQMNSLKPEDTAVYYCNADYWWSYVRFVYWGQGTQVTVSS” as the sequence, how does the “polyreactivity (PSR sort gate)” value read?
Its value is “low polyreactivity”.

For “QVQLVESGGGLVQAGGSLRLICAASGRIFKNNAMGWYRQAPGKEREFVAAISSIGGRTYYADSVKGRFTISRDNAKNTVYLQMISLKPEDTAVYYCAARGYTGGLWYDYWGQGTQVTVSS”, which “polyreactivity (PSR sort gate)” value is on record?
Its value is “high polyreactivity”.

With “QVQLVESGGGLVQAGGSLRLICAASGRIFLRNDMGWYRQAPGKERELVAGISSDGSTYYADSVNGRFTISRDNAKNTVYLQMNSLKPEDTAVYYCAAERWGNPTDYQFWRPYDYWGQGTQVTVSS” as the sequence, how does the “polyreactivity (PSR sort gate)” value read?
The value was “low polyreactivity”.

For “QVQLVESGGGLVQAGGSLRLICAASGRIFRGNAMGWYRQAPGKEMELVDTITIRGGSTYYADSVKGRFTISRDNAKNTVYLKMNSLIPEDTAVYYCNTRTYGYLTQKYDYWGQGTQVTVSS”, which “polyreactivity (PSR sort gate)” value is on record?
The value was “high polyreactivity”.

Which “polyreactivity (PSR sort gate)” value does the source give for “QVQLVESGGGLVQAGGSLRLICAASGRIFRYYAMGWYRQAPGKERELVASISWRGGSTYYADSVKGRFTISRDNAKNTVYLQMNSLKPDDTAVYYCNAAPGAFYRWWGFGSDYWGQGTQVTVSS” here?
The value was “high polyreactivity”.

Which “polyreactivity (PSR sort gate)” value does the source give for “QVQLVESGGGLVQAGGSLRLICAASGRIFYINAMGWYRQPPGKERELVAAITGGDGSTTYADSVKGRFTISRDNAKNTVYLQMNSLKPEDTAVYYCYADTARKYAESQFDHWGQGTQVTVSS” here?
Its value is “low polyreactivity”.

For “QVQLVESGGGLVQAGGSLRLICAASGRIFYNYVMGCYRQAPGKERDLVAAISVSSGNTYYADSVKGRFTISRDYAKITVYLQMNSLKPEDTAVYYCARLRTVGGYSKYDYWGQGTQVTVSS”, which “polyreactivity (PSR sort gate)” value is on record?
The value was “low polyreactivity”.

For “QVQLVESGGGLVQAGGSLRLICAASGRIIARNAMGWYRQAPGKERELVAAITARGARTYYADSVKGRFTISRDNAKNTVYLQMNSLKPEDTAVYYCAVVQGNVYYTGDDYWGQGTQVTVSS”, which “polyreactivity (PSR sort gate)” value is on record?
Its value is “high polyreactivity”.

For “QVQLVESGGGLVQAGGSLRLICAASGRILSYYAMGWYRQAPGKERELVATINSGGSTNYADSVKGRFTISRDNAKNTVYLEMNSLKPEDTAVYYCAASPVWWYEYWGQGTQVNVSS”, which “polyreactivity (PSR sort gate)” value is on record?
Its value is “low polyreactivity”.

With “QVQLVESGGGLVQAGGSLRLICAASGRILYGNVMGWYRQAPGKERELVAAIDSSGATTYYADSVKGRFTISRDNAKNTVYLQMNSLKPEDTAVYYCAAEVTSFSFGGDATEYYWGQGTQVTVSS” as the sequence, how does the “polyreactivity (PSR sort gate)” value read?
The value was “low polyreactivity”.

Which “polyreactivity (PSR sort gate)” value does the source give for “QVQLVESGGGLVQAGGSLRLICAASGRISAFNAMGWYRQAPGKERELVAAINVSGGNTYYADSVKGRFTISRDNAKNTVYLQMNSMKPEDTAVYYCAAERRRWGLDYYYWGQGTQVTVSS” here?
Its value is “high polyreactivity”.

Which “polyreactivity (PSR sort gate)” value does the source give for “QVQLVESGGGLVQAGGSLRLICAASGRIYYGYAMGWYRQAPGKERELVSTITWSGGSTYYADSVKGRFTISRDNAKNTVYLQMNSLKPEDTAVYYCAAYSPYIYQAYRYDYWGQGTQVTVSS” here?
The value was “low polyreactivity”.

Which “polyreactivity (PSR sort gate)” value does the source give for “QVQLVESGGGLVQAGGSLRLICAASGRTFAYNAMGWYRQAPGKERELVAAISYRGTTTYYADSVKGRFTISRDNAKNTVYLQMNSLKPEDTAVYYCNKVGTRFSAYSSGFVLSEYYYWGQGTQVTVSS” here?
The value was “high polyreactivity”.

Which “polyreactivity (PSR sort gate)” value does the source give for “QVQLVESGGGLVQAGGSLRLICAASGRTFAYYAMGWYIQAPGKERELVAAISSSGGRTYYADSVKGRFTISRDNAKNTVYLQMNSLKPEDTAVYFCAAYTTVKKNGYWGQGTQVTVSS” here?
Its value is “high polyreactivity”.

Which “polyreactivity (PSR sort gate)” value does the source give for “QVQLVESGGGLVQAGGSLRLICAASGRTFDHNAMGWYRQAPGKERELVAAITWSGGITDYADSVKRPFTISRDNAKNTVYLQMNSLKPEDTAVWGQGTQVTVSS” here?
The value was “low polyreactivity”.

Which “polyreactivity (PSR sort gate)” value does the source give for “QVQLVESGGGLVQAGGSLRLICAASGRTFDRYDMGWYRPAPGKERALVATISSSGGSTYYADSVKGRFTISRDNAKNTVYLQMNSLKPEDTAVYYCAADPSGYYWGQGSQVTVSS” here?
Its value is “low polyreactivity”.

For “QVQLVESGGGLVQAGGSLRLICAASGRTFGVYAMGWYRQAPGKERELVADITSGGGTYYADSVKGRFTILRDNAKNTFYLQMNSLKPEDTAVYYFAARKWYYAYDYWGQGTQVTVSS”, which “polyreactivity (PSR sort gate)” value is on record?
The value was “high polyreactivity”.

For “QVQLVESGGGLVQAGGSLRLICAASGRTFKFNAMGWYRQAPGKERELVARITGGRTNYADSVKGRFTISRDNAKNTVYLQLNSLKPEDTAVYYCAADRYYGYSQDRRRYGYWGQGTQVTVSS”, which “polyreactivity (PSR sort gate)” value is on record?
Its value is “high polyreactivity”.

With “QVQLVESGGGLVQAGGSLRLICAASGRTFKYYAMGWYRPAPGKERELVATISFRGGSTYYADSVKGRFTISRDNAKNTVYLQMNSLKPEDTSVYYCAATTPYYTPRRRNDYWGQGTQVTVSS” as the sequence, how does the “polyreactivity (PSR sort gate)” value read?
The value was “high polyreactivity”.

For “QVQLVESGGGLVQAGGSLRLICAASGRTFNINGMGWYRQAPGKERELVAAITTSGGSTYYADSVKGRFTISRDNAKNTVYLQMNSLKPEDTAVYYCAADVFSRKYLYGDYDYWGQGTQVTVSS”, which “polyreactivity (PSR sort gate)” value is on record?
The value was “high polyreactivity”.

For “QVQLVESGGGLVQAGGSLRLICAASGRTFPGYGMGWYRQAPGKERELVAVITSNGGITYYADSVKGRFTISRDNAKNTVYLQMNSLKPEDTAVYYCAAYEIYNEFDSWGQGTQVTVSS”, which “polyreactivity (PSR sort gate)” value is on record?
Its value is “low polyreactivity”.

With “QVQLVESGGGLVQAGGSLRLICAASGRTFPRYTMGWYRQEPGNERELVAAISWRGGRTYYADSVKGRFTISLDNAKNTVYLLMNSLKPEDTAVYYCNAQKRDGSMGYWGQGTQVTVSS” as the sequence, how does the “polyreactivity (PSR sort gate)” value read?
Its value is “high polyreactivity”.

For “QVQLVESGGGLVQAGGSLRLICAASGRTFPYNAMGWYRQAPGKEREFVAVISKGGGRTYYADSVKGRFTISRDNAKNTVYLQMNSLKPEDTAVYYCAKRIGLTFWGQGTQVTVSS”, which “polyreactivity (PSR sort gate)” value is on record?
The value was “high polyreactivity”.

With “QVQLVESGGGLVQAGGSLRLICAASGRTFPYNTMGWYRQAPGKERELVAGISIRGSSTYYADSVKGRFTISRDNAKNTVYLQMNSLKPEDTAVYYCAKRYYGWYGNFDYWGQGTQVTVSS” as the sequence, how does the “polyreactivity (PSR sort gate)” value read?
Its value is “high polyreactivity”.

Which “polyreactivity (PSR sort gate)” value does the source give for “QVQLVESGGGLVQAGGSLRLICAASGRTFRGNAKGCYRQAPGKERELVAAISGRGTNTYYADSVKGRFTISRDNAKNTVYLQMNSLKPEDTAVYYCAKVFYSYRDHYDYWGQGTQVTVSS” here?
The value was “high polyreactivity”.

With “QVQLVESGGGLVQAGGSLRLICAASGRTFRGYAMGWYRQAPGKERELVAAISVTGSSTNYADSVKGRFTISRDNAKNTVYLQMNSLKPEDTAVYYCNAKRVRYSLSYDYWGQGTQVTVSS” as the sequence, how does the “polyreactivity (PSR sort gate)” value read?
Its value is “high polyreactivity”.

For “QVQLVESGGGLVQAGGSLRLICAASGRTFRYNAMGWYRQAPGKERELVAAITLGASRTYYADSVKGRFTISRDNAKNTVYLQMNSLKPEDTAVYYCNAVGRRNVDSSLNDYWGQGTQVTVSS”, which “polyreactivity (PSR sort gate)” value is on record?
Its value is “low polyreactivity”.

Which “polyreactivity (PSR sort gate)” value does the source give for “QVQLVESGGGLVQAGGSLRLICAASGRTFTGYTMGWYRQAPGKEREFVAAISSNGGRTYYADSVKGRFTISRDNAKNTVYLQMNSLKPEDTAVYYCAAPYTFWGQGTQVTVSS” here?
The value was “high polyreactivity”.

With “QVQLVESGGGLVQAGGSLRLICAASGRTFTRYAMGWYRQAPGKERELVAAITSGDSTYYADSVKGRFTISRDNAKNTVYLQMNSLKPEDTAVYYCAARTSYGYWYRRRYYYWGQGTQVTVSS” as the sequence, how does the “polyreactivity (PSR sort gate)” value read?
The value was “high polyreactivity”.

With “QVQLVESGGGLVQAGGSLRLICAASGRTFVPNVMGWYRQAPGKERELVAAITSGGSTYYADSVKGRFTISRDNAKNTVYLQMNSLKPEDTAVYYCAKRTSWKYGYWGQGTQVTVSS” as the sequence, how does the “polyreactivity (PSR sort gate)” value read?
Its value is “high polyreactivity”.
